Assay results published in patent US20250197490A1, “ANTI-CORTICOTROPIN-RELEASING HORMONE ANTIBODIES AND USE IN CONGENITAL ADRENAL HYPERPLASIA” (HBM ALPHA THERAPEUTICS, INC., priority 2021, published 2025).

Experiments:
[1] = biological target: biotinylated CRH (human and mouse); assay: Octet in-tandem competition on captured CRH; row = 1st mAb (control hIgG1); competitor (2nd mAb) PR006669
[2] = biological target: biotinylated CRH (human and mouse); assay: Octet in-tandem competition on captured CRH; row = 1st mAb (control hIgG1); competitor (2nd mAb) PR005660
[3] = biological target: biotinylated CRH (human and mouse); assay: Octet in-tandem competition on captured CRH; row = 1st mAb (control hIgG1); competitor (2nd mAb) PR302341-34
[4] = biological target: biotinylated CRH (human and mouse); assay: Octet in-tandem competition on captured CRH; row = 1st mAb (control hIgG1); competitor (2nd mAb) PR303394
[5] = biological target: biotinylated CRH (human and mouse); assay: Octet in-tandem competition on captured CRH; row = 1st mAb (control hIgG1); competitor (2nd mAb) PR302309-8
[6] = biological target: biotinylated CRH (human and mouse); assay: Octet in-tandem competition on captured CRH; row = 1st mAb (control hIgG1); competitor (2nd mAb) PR302334
[7] = biological target: biotinylated CRH (human and mouse); assay: Octet in-tandem competition on captured CRH; row = 1st mAb (control hIgG1); competitor (2nd mAb) PR301777

Chain of biotinylated CRH (human and mouse) (P01143 145-185): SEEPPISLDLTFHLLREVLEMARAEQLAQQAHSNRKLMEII

Work on “unrelated human IgG1 (negative control) (antibody)” yielded a % Inhibition [1] of 9%, a % Inhibition [2] of 12% and a % Inhibition [3] of 12%. For the same substance, the % Inhibition [4] was 10%, the % Inhibition [5] was 15% and the % Inhibition [6] was 8%. It also gave a % Inhibition [7] of 9%.
